Test results: patent US20220298218A1 (ANTAG THERAPEUTICS, published 2022)
Where two headings read alike, the source gives them in different places. *1 amine or outer side, *2 acyl side, *3 side chain or, on linkers, in order; H or OH if unused. Where no end group is shown, it is not given here. Side-chain parts run from the residue outwards. [ ]: non-standard residue; d: D form. The star is where a group is joined. d(γGlu) = O=C(O)[C@@H](CCC(=O)[*:2])N[*:1]; C18 diacid = O=C(O)CCCCCCCCCCCCCCCCC(=O)*; C16 diacid = O=C(O)CCCCCCCCCCCCCCC(=O)*; γGlu = O=C(O)[C@H](CCC(=O)[*:2])N[*:1]; Glutaryl = O=C(CCCC(=O)[*:2])[*:1]; Nle = CCCC[C@H](N)C(=O)O; AEEA = NCCOCCOCC(=O)O; Aib = CC(C)(N)C(=O)O

B1: AT696 (peptide)
peptide: EGTFISEYSI[Aib][Nle]EKIK([AEEA-AEEA-γGlu-C18 diacid])QQEFVEWLLAQKPSSGAPPPS-OH
modifications: N-terminus assumed
SMILES: CCCC[C@H](NC(=O)C(C)(C)NC(=O)[C@@H](NC(=O)[C@H](CO)NC(=O)[C@H](Cc1ccc(O)cc1)NC(=O)[C@H](CCC(=O)O)NC(=O)[C@H](CO)NC(=O)[C@@H](NC(=O)[C@H](Cc1ccccc1)NC(=O)[C@@H](NC(=O)CNC(=O)[C@@H](N)CCC(=O)O)[C@@H](C)O)[C@@H](C)CC)[C@@H](C)CC)C(=O)N[C@@H](CCC(=O)O)C(=O)N[C@@H](CCCCN)C(=O)N[C@H](C(=O)N[C@@H](CCCCNC(=O)COCCOCCNC(=O)COCCOCCNC(=O)CC[C@H](NC(=O)CCCCCCCCCCCCCCCCC(=O)O)C(=O)O)C(=O)N[C@@H](CCC(N)=O)C(=O)N[C@@H](CCC(N)=O)C(=O)N[C@@H](CCC(=O)O)C(=O)N[C@@H](Cc1ccccc1)C(=O)N[C@H](C(=O)N[C@@H](CCC(=O)O)C(=O)N[C@@H](Cc1c[nH]c2ccccc12)C(=O)N[C@@H](CC(C)C)C(=O)N[C@@H](CC(C)C)C(=O)N[C@@H](C)C(=O)N[C@@H](CCC(N)=O)C(=O)N[C@@H](CCCCN)C(=O)N1CCC[C@H]1C(=O)N[C@@H](CO)C(=O)N[C@@H](CO)C(=O)NCC(=O)N[C@@H](C)C(=O)N1CCC[C@H]1C(=O)N1CCC[C@H]1C(=O)N1CCC[C@H]1C(=O)N[C@@H](CO)C(=O)O)C(C)C)[C@@H](C)CC
B2: AT702 (peptide)
peptide: Glutaryl-GTFISDYSIA[Nle]DKIK([AEEA-AEEA-γGlu-C18 diacid])QQDFVEWLLAQKPSSGAPPPS-OH
B3: AT418 (peptide)
peptide: EGTFISDYSIAMDKIK([AEEA-AEEA-AEEA-γGlu-C18 diacid])QQDFVNWLLAQKGKKNDW-OH
modifications: N-terminus assumed
SMILES: CC[C@H](C)[C@H](NC(=O)[C@H](CO)NC(=O)[C@H](Cc1ccc(O)cc1)NC(=O)[C@H](CC(=O)O)NC(=O)[C@H](CO)NC(=O)[C@@H](NC(=O)[C@H](Cc1ccccc1)NC(=O)[C@@H](NC(=O)CNC(=O)[C@@H](N)CCC(=O)O)[C@@H](C)O)[C@@H](C)CC)C(=O)N[C@@H](C)C(=O)N[C@@H](CCSC)C(=O)N[C@@H](CC(=O)O)C(=O)N[C@@H](CCCCN)C(=O)N[C@H](C(=O)N[C@@H](CCCCNC(=O)COCCOCCNC(=O)COCCOCCNC(=O)COCCOCCNC(=O)CC[C@H](NC(=O)CCCCCCCCCCCCCCCCC(=O)O)C(=O)O)C(=O)N[C@@H](CCC(N)=O)C(=O)N[C@@H](CCC(N)=O)C(=O)N[C@@H](CC(=O)O)C(=O)N[C@@H](Cc1ccccc1)C(=O)N[C@H](C(=O)N[C@@H](CC(N)=O)C(=O)N[C@@H](Cc1c[nH]c2ccccc12)C(=O)N[C@@H](CC(C)C)C(=O)N[C@@H](CC(C)C)C(=O)N[C@@H](C)C(=O)N[C@@H](CCC(N)=O)C(=O)N[C@@H](CCCCN)C(=O)NCC(=O)N[C@@H](CCCCN)C(=O)N[C@@H](CCCCN)C(=O)N[C@@H](CC(N)=O)C(=O)N[C@@H](CC(=O)O)C(=O)N[C@@H](Cc1c[nH]c2ccccc12)C(=O)O)C(C)C)[C@@H](C)CC
B4: AT695 (peptide)
peptide: EGTFISEYSI[Aib]LEKIK([AEEA-AEEA-γGlu-C18 diacid])QQEFVEWLLAQKPSSGAPPPS-OH
modifications: N-terminus assumed
SMILES: CC[C@H](C)[C@H](NC(=O)[C@H](CCCCN)NC(=O)[C@H](CCC(=O)O)NC(=O)[C@H](CC(C)C)NC(=O)C(C)(C)NC(=O)[C@@H](NC(=O)[C@H](CO)NC(=O)[C@H](Cc1ccc(O)cc1)NC(=O)[C@H](CCC(=O)O)NC(=O)[C@H](CO)NC(=O)[C@@H](NC(=O)[C@H](Cc1ccccc1)NC(=O)[C@@H](NC(=O)CNC(=O)[C@@H](N)CCC(=O)O)[C@@H](C)O)[C@@H](C)CC)[C@@H](C)CC)C(=O)N[C@@H](CCCCNC(=O)COCCOCCNC(=O)COCCOCCNC(=O)CC[C@H](NC(=O)CCCCCCCCCCCCCCCCC(=O)O)C(=O)O)C(=O)N[C@@H](CCC(N)=O)C(=O)N[C@@H](CCC(N)=O)C(=O)N[C@@H](CCC(=O)O)C(=O)N[C@@H](Cc1ccccc1)C(=O)N[C@H](C(=O)N[C@@H](CCC(=O)O)C(=O)N[C@@H](Cc1c[nH]c2ccccc12)C(=O)N[C@@H](CC(C)C)C(=O)N[C@@H](CC(C)C)C(=O)N[C@@H](C)C(=O)N[C@@H](CCC(N)=O)C(=O)N[C@@H](CCCCN)C(=O)N1CCC[C@H]1C(=O)N[C@@H](CO)C(=O)N[C@@H](CO)C(=O)NCC(=O)N[C@@H](C)C(=O)N1CCC[C@H]1C(=O)N1CCC[C@H]1C(=O)N1CCC[C@H]1C(=O)N[C@@H](CO)C(=O)O)C(C)C
B5: AT698 (peptide)
peptide: [d(γGlu)]GTFISDYSIA[Nle]DKIK(C16 diacid)QQDFVEWLLAQKPSSGAPPPS-OH
modifications: N-terminus assumed
SMILES: CCCC[C@H](NC(=O)[C@H](C)NC(=O)[C@@H](NC(=O)[C@H](CO)NC(=O)[C@H](Cc1ccc(O)cc1)NC(=O)[C@H](CC(=O)O)NC(=O)[C@H](CO)NC(=O)[C@@H](NC(=O)[C@H](Cc1ccccc1)NC(=O)[C@@H](NC(=O)CNC(=O)CC[C@@H](N)C(=O)O)[C@@H](C)O)[C@@H](C)CC)[C@@H](C)CC)C(=O)N[C@@H](CC(=O)O)C(=O)N[C@@H](CCCCN)C(=O)N[C@H](C(=O)N[C@@H](CCCCNC(=O)CCCCCCCCCCCCCCC(=O)O)C(=O)N[C@@H](CCC(N)=O)C(=O)N[C@@H](CCC(N)=O)C(=O)N[C@@H](CC(=O)O)C(=O)N[C@@H](Cc1ccccc1)C(=O)N[C@H](C(=O)N[C@@H](CCC(=O)O)C(=O)N[C@@H](Cc1c[nH]c2ccccc12)C(=O)N[C@@H](CC(C)C)C(=O)N[C@@H](CC(C)C)C(=O)N[C@@H](C)C(=O)N[C@@H](CCC(N)=O)C(=O)N[C@@H](CCCCN)C(=O)N1CCC[C@H]1C(=O)N[C@@H](CO)C(=O)N[C@@H](CO)C(=O)NCC(=O)N[C@@H](C)C(=O)N1CCC[C@H]1C(=O)N1CCC[C@H]1C(=O)N1CCC[C@H]1C(=O)N[C@@H](CO)C(=O)O)C(C)C)[C@@H](C)CC
B6: AT703 (peptide)
peptide: EGTFISDYSIALDKIKQQDFVNWLLAQKPSSGAPPPS
modifications: βGlu at 3; Aib at 13; Nle at 14; K18: C16-diacid; C-term COOH
B7: AT699 (peptide)
peptide: [βGlu]GTFISDYSIA[Nle]DKIK(C16 diacid)QQDFVEWLLAQKPSSGAPPPS-OH
B8: AT697 (peptide)
peptide: [γGlu]GTFISDYSIA[Nle]DKIK(C16 diacid)QQDFVEWLLAQKPSSGAPPPS-OH
modifications: N-terminus assumed
SMILES: CCCC[C@H](NC(=O)[C@H](C)NC(=O)[C@@H](NC(=O)[C@H](CO)NC(=O)[C@H](Cc1ccc(O)cc1)NC(=O)[C@H](CC(=O)O)NC(=O)[C@H](CO)NC(=O)[C@@H](NC(=O)[C@H](Cc1ccccc1)NC(=O)[C@@H](NC(=O)CNC(=O)CC[C@H](N)C(=O)O)[C@@H](C)O)[C@@H](C)CC)[C@@H](C)CC)C(=O)N[C@@H](CC(=O)O)C(=O)N[C@@H](CCCCN)C(=O)N[C@H](C(=O)N[C@@H](CCCCNC(=O)CCCCCCCCCCCCCCC(=O)O)C(=O)N[C@@H](CCC(N)=O)C(=O)N[C@@H](CCC(N)=O)C(=O)N[C@@H](CC(=O)O)C(=O)N[C@@H](Cc1ccccc1)C(=O)N[C@H](C(=O)N[C@@H](CCC(=O)O)C(=O)N[C@@H](Cc1c[nH]c2ccccc12)C(=O)N[C@@H](CC(C)C)C(=O)N[C@@H](CC(C)C)C(=O)N[C@@H](C)C(=O)N[C@@H](CCC(N)=O)C(=O)N[C@@H](CCCCN)C(=O)N1CCC[C@H]1C(=O)N[C@@H](CO)C(=O)N[C@@H](CO)C(=O)NCC(=O)N[C@@H](C)C(=O)N1CCC[C@H]1C(=O)N1CCC[C@H]1C(=O)N1CCC[C@H]1C(=O)N[C@@H](CO)C(=O)O)C(C)C)[C@@H](C)CC
B9: AT700 (peptide)
peptide: Glutaryl-GTFISDYSIA[Nle]DKIK(C16 diacid)QQDFVEWLLAQKPSSGAPPPS-OH
B10: AT701 (peptide)
peptide: [βGlu]GTFISDYSIA[Nle]DKIK([AEEA-AEEA-γGlu-C18 diacid])QQDFVEWLLAQKPSSGAPPPS-OH

Tests used:
human GIP receptor [1] = molecular target: T1, human GIP receptor (human, UniProt P48546 22-466); assay: cell-based or functional assay
T1 sequence (looked up): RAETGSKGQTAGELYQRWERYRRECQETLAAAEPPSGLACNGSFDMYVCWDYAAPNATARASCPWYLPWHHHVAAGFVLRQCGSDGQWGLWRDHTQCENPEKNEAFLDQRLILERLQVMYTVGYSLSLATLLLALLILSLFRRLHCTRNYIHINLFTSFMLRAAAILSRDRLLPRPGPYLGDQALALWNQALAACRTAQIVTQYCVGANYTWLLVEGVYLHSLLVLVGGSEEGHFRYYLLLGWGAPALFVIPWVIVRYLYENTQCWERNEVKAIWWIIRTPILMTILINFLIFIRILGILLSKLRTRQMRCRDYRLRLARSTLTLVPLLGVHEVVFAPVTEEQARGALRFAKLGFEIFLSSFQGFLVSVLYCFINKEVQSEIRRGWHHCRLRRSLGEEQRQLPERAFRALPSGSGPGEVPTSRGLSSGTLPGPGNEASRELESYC

human GIP receptor [2] = molecular target: T1, human GIP receptor; assay: cell-based or functional assay; remark: listed apart in the source

Binder | cAMP agonism % Emax (human GIP receptor [1]) [%] | cAMP antagonism (human GIP receptor [1]) [nM] | cAMP antagonism % inhib (human GIP receptor [1]) [%] | cAMP antagonism pIC50 (human GIP receptor [1]) | cAMP agonism Emax (human GIP receptor [2]) | cAMP antagonism (human GIP receptor [2]) [nM] | cAMP antagonism % inhib (human GIP receptor [2]) [%] | cAMP antagonism log (human GIP receptor [2]) [log M]
B1 | 0 | 0.584 | 97 | 9.2 |  |  |  | 
B2 | 0 | 3.55 | 85 | 8.5 |  |  |  | 
B3 |  |  |  |  | 7.8 | 68 | 95 | -7.2
B4 | 0 | 0.794 | 98 | 9.1 |  |  |  | 
B5 | 8 | 9.26 | 78 | 8 |  |  |  | 
B6 | 0 | 4.3 | 93 | 8.6 |  |  |  | 
B7 | 0 | 6.31 | 88 | 8.2 |  |  |  | 
B8 | 8 | 2.82 | 81 | 8.6 |  |  |  | 
B9 | 3 | 0.708 | 89 | 9.2 |  |  |  | 
B10 | 13 | 12.6 | 63 | 7.9 |  |  |  | 
